From the DeepSol protein solubility set

Assay: soluble on expression in E. coli; label from the status in PepcDB or PDB records

Sequence	soluble on expression in E. coli
YIKMISNAKRSILIQTPYFIPDASLLDALRIACLSGIDVNIMIPNKPDHAFVYWATLSYIGDLLKAGATVYIYDNGFIHAKTIVVDDEIASVGTANIDVRSFRLNFEVNAFIYDITIAKKLVSTFKEDLLVSRKFTYEEYLQRPLWIR	not soluble
MGSDKIHHHHHHMSLEHFFRDELTYLRLQGREFAKAHPELTRFLSEQTTDPDVERLLEGFAFLTGSLRAKIEDEFPELTHGLLGMLWPNYLRPVPSMTIMQFSVHPGAIAQPAFVARGCELDSLPIDDVVCHFQTCHDAWIYPADIREIKVQSGNDLSTITLDIGLHGPLSLSDLQLDKLRFYLGGDTYTAYELYFWIASQLSHIELEVDGQRFRQEASVLKTVGFEREDALLPYPGNVYSGYRILQEYFCFPESFLFFQLAGAVWPDLPLTVTEFRLHFCFDRPLPAELKIRPDSFMFNCVPAINLFQHDSEPINLSGRQTDYPLKASYRNADSFEIFSVDKVEGWVEGNSGRSRGIPRTYQPFESFQHQIERAKGRLALYYRIRVREAINGNGFDHMLSFVRGDEQEVIDLDESISVTLTCTNRSRAAQLSVGAICVPTGNSPSFATFRNLVRPTRPLRPAMDGSLHWTLISNLSLNYVSLLRRDALVQILRTYDFPALHDKQAEQASRKRLAGIESIETTPIDRLVQGMPVRGLKSILSVRQSAFSSEGELYLFSTVLAHFFSLYASVNAFHLLEVVNIDNKERYRWPVQIGQHSMM	not soluble
MALLVAKAYKIIDRIKDAESRPDRLTNKDAGDVYRLFMGFPAAGVAASWHALTSDQRVGEVSTTGLALLRELFAGPRSPGANMAVAALAGDVPEDRVRQVCRAYVNRLSA	not soluble
GPGSMFFYQRRLASGLPVRFLSLRAWRSSPENFRKTSAFLKALKAKTPAAGVSAEGFGARPVVVITGGERGIGKEVVHQLLREGVDVILCCPFEAEALRTIARLKARVSNSRVHFVKLDLNDEESVRECAAEVLGMTPRIDVLINNSGLVSPLSHKLNKRGYEVVLSINFLGHVLFTELLLERVKASGPSRIVNVASLMHLDACVEGPCKTALDVMAANCDPTSPHHTRNYSLSKLLLVCYTRDLARHLRGTDTAVATLHPGVVITDIYAFAVIFMRVFFRTVFKFPGEGAEVVLYCALADNIRSGSFYADCAEYNSLLSPLAVDDAHNERLRRVLLRYFALDGSKPTGKSLADVVQSTP	not soluble
MGSDKIHHHHHHMLIQIADLFTPAEAAQIRARLEAADWVDGKVTAGYQSAQVKHNRQLSEQHPLAQELGGLILQRLAANNLFMSAALPRKIFPPLFNRYEGGEAFGYHVDNALRPVPGTAERVRTDLSATLFFSEPDSYDGGELVVDDTYGPRTVKLPAGHMVLYPGTSLHKVTPVTRGARISAFFWLQSLVREDSQRSLLLEMDVAIQRLNQDTPGHASIVQLTGVYHNLLRRWTDV	not soluble
MGKYFGTDGVRGVANKELTPELAFKIGRFGGYVLTKDTDRPKVIIGRDTRISGHMLEGALVAGLLSTGAEVMRLGVISTPGVAYLTKALDAQAGVMISASHNPVQDNGIKFFGSDGFKLTDEQEAEIEALLDKEVDELPRPTGTNLGQVSDYFEGGQKYLQYIKQTVEEDFSGLHIALDCAHGATSSLAPYLFADLEADISTMGTSPNGMNINDGVGSTHPEVLAELVKEKGADIGLAFDGDGDRLIAVDEKGNIVDGDQIMFICAKYMKETGQLKHNTVVSTVMSNLGFYKALEANGITSDKTAVGDRYVMEEMKRGGYNLGGEQSGHIILLDYITTGDGMLSALQLVNIMKMTKKPLSELAGEMTKFPQLLVNVRVTDKKLALENEKIKEIIRVVEEEMNGDGRILVRPSGTEPLIRVMAEAPTQEVCDAYVHRIVEVVKAEVGAE	not soluble
MKTVYLTIDDGPSKDRKEKVDILYQYGIQPIWFCIGSEIEKRPEDVIYSIRKGGIIGNHSYSHPRFSQISLEECFEEIEKTDRIIDSIYREAGVARPIKAFRFPYGDKGEDNNFFKKPYSEEGKKKISKIMTFLKELGYTKPKFDGITYEYYSKFGLKDDIDWYWTYDVAEWCTFQEKPMFGVRTIDDVFELMELDLPEKWAGLNYPYSDDIILMHDHPQTTPLFKPIICQLLKKGLHFGAIPLE	soluble
MKGIILAGGTGSRLYPITKVTNKHLLPVGRYPMIYHAVYKLKQCDITDIMIITGKEHMGDVVSFLGSGQEFGVSFTYRVQDKAGGIAQALGLCEDFVGNDRMVVILGDNIFSDDIRPYVEEFTNQKEGAKVLLQSVDDPERFGVANIQNRKIIEIEEKPKEPKSSYAVTGIYLYDSKVFSYIKELKPSARGELEITDINNWYLKRGVLTYNEMSGWWTDAGTHVSLQRANALARDINFGKQFNGE	not soluble
MDQIRQLAQWIKEANTIAVLTGAGMSTESGIPDFRSENGLYAQEDNVEYYLSEYYYKKDPVDFWRRFKRMFSLKMMGGFAPNDGHRFLRWLEEMGKTVTILTQNIDGLHTKAGSTNVIELHGTLQTATCPSCGNKYDLSFINRHEVPRCEKCQTIVKPDVVLFGGLVPRMEEAFAAAAASDLLLAMGTSLEVAPVNQIPFYVAAESPATRKVLINKTATRMDGMFDLVIYGGIGKTVASVRKQIQAE	soluble
MSLLWSRCTLFLFLCPIRVRGREHIPGKGPFVVMANHQGACDIFMMYGYLGIPFKWVLKEGIRKLPFVGYACRSAGFVFVDDTRPSSIAHTMDQAKRVLAEGTSIFIFPEGSRTRNGRLARFKKGGFLMADELGVPIIPVSLDGSYRVLPSGKLIPRPHRLTLTIHPPLSVADFGERPLCISEAVRETSRRIASVLPEEMAATQSKEGHHHHHH	not soluble
MSLSMITLWGRNNSTNVKKVLLTLEELELPYEQILAGREFGINHDADFLAMNPNGLVPLLRDDESDLILWESNAIVRYLAAQYGQKRLWIDSPARRAEAEKWMDWANQTLSNAHRGILMGLVRTPPEERDQAAIDASCKECDALFALLDAELAKVKWFSGDEFGVGDIAIAPFIYNLFNVGLTWTPRPNLQRWYQQLTERPAVRKVVMIPVSEGHHHHHH	soluble
MSLESGFLEDAQANLTLRNFYFNRNFTNPTKAQGKAEEWTQSFILDAKSGFTQGTVGFGMDVLGLYSLKLDGGKGTGGTQLLPLDHDGRPADNFGRLGVAFKARLSQTEVKVGEWMPVLPILRSDDGRSLPQTFRGGQITSKEIAGLTLYGGQFRANSPRDDSSMSDMSMFGKAAFTSDRFNFQGAEYAFNDKRTQIALWNAQLKDIYSQQFINLIHSQPLGDWTLGANLGFFYGKEDGSARAGDMENRTWSGLFSAKYGGNTFYVGLQKLTGDSAWMRVNGTSGGTLANDSYNASYDNAKEKSWQVRHDYNFAALGVPGLTLMNRYISGSNVHTATVSDGKEWGRESEVAYTVQSGTLKNLNLKWRNSTMRRDFSNNEFDENRLIISYPLSLLEGHHHHHH	soluble
MTDLEHAVESNRRAWDASADSHLRGGGWQELSLAVQETGFSCLDETLAGVLRNLDLAGKAAVQVGCNNGREVLSLYAFGVARAVGIDQSAAFLAQARQLAERSPHQPRFVEANAYELPAELNGQFDLLLITIGVLNWMPDIARFFASVSGLLKPGGQLAIYETHPFLEMLEPESERPFELRNDYFTDTPHVSREAIVYEGSGSDTGIASYWYVHPLGDILGGLLGAGLRLSHFKEYPHSNREELYDLYEDGPLAIPMCYTLVAVKA	soluble
GPGSMDPTLKELLHANLEWIFVGGKGGVGKTTTSCALATLFATTPISDAASPGGTRPRRVLLISTDPAHNLSDAFNQRFGPHPTPVKGLEESLAAMEVDPKNFTHGALMSSLTGAKSDGSASSLSAEAEADAAQHTASFARIGAVLKEAARTMPGIDEISVFAEILHYVRTLFYDLLIFDTAPTGHTLRLLALPQTLSSTFDKLMSLEGLAPMIEAASHLIGTNLGALGGACGDTAGSCEQATAAPSLSSAAPGEGSAAAASSQSRWCITADEVRSTALHWRQTMEEVQARFNDPNRTSFVCVCIAEFLSVYETERLVQELMKYNIGCDSIVVNQLVLKPSSEPPCRMCSARQKIQAKYLEQIDLLYEDFHVVKMPLLSDEVRGVPALKKFARFLQEPYSPDTHGYIDVQEPC	not soluble
MSANDRRDRRVRVAVVFGGRSNEHAISCVSAGSILRNLDSRRFDVIAVGITPAGSWVLTDANPDALTITNRELPQVKSGSGTELALPADPRRGGQLVSLPPGAGEVLESVDVVFPVLHGPYGEDGTIQGLLELAGVPYVGAGVLASAVGMDKEFTKKLLAADGLPVGAYAVLRPPRSTLHRQECERLGLPVFVKPARGGSSIGVSRVSSWDQLPAAVARARRHDPKVIVEAAISGRELECGVLEMPDGTLEASTLGEIRVAGVRGREDSFYDFATKYLDDAAELDVPAKVDDQVAEAIRQLAIRAFAAIDCRGLARVDFFLTDDGPVINEINTMPGFTTISMYPRMWAASGVDYPTLLATMIETTLARGVGLH	soluble
MGSDKIHHHHHHMSKLIVPQWPQPKGVAACSSTRIGGVSLPPYDSLNLGAHCGDNPDHVEENRKRLFAAGNLPSKPVWLEQVHGKDVLKLTGEPYASKRADASYSNTPGTVCAVMTADCLPVLFCNRAGTEVAAAHAGWRGLCAGVLEETVSCFADNPENILAWLGPAIGPRAFEVGGEVREAFMAVDAKASAAFIQHGDKYLADIYQLARQRLANVGVEQIFGGDRCTYTENETFFSYRRDKTTGRMASFIWLI	soluble
MGSDKIHHHHHHMPYTIPNNSCVGCDNCRPQCPTGAIKIEDNEYWVDPGLCNNCEGYYSEPQCVIACPTKSPIPWQAKKGRCKVEPRDSTSLDLFSNGKNNPFASAIAIWEACNVLGQRTSLHWETDEDGYLCYSRQVNQGKGAIAFHIQDPFQVNDKATDIAAIEALDIRAACIHLIFAGYATALEQPWEQEFAIDERQIEKYLGMEKRKDLSKAAKLALMKNLVQQACSLIISIDWPQQGRINGFSVTNSRLWHLVDIQHHFQEDNHGCKYLIGLTFKVKAGLWAQYFLNKQACKERTAFYQYGSLPKTLLTTVMSIWQQHEGAVRLMLWLLFKTKMGKEQRITIPTLLRIAYGEEKVALASRQREERKRLLRTFESDLEILNHYGMKPLFDPVTYPPEIQPLWAKLIDLPEDPDEALEFWTNDGGSETRLTDTGPRGKWNLLMNARILAFELPPEWEQQISESEKKKTRTAKAKKKTKATNDLLGEQILQARKNLNLSQRELAKLTGKSQSWIRDIENGRLKAKLEDQLLLRKVLNMASS	not soluble
ILLVHGSGYGGWCWDATIRALAAHGARARALDLPGRIFTPGLSLADHAAAILQEIRAPVTLVGHSAGGFSIAAAAEAAAPGLIERLIFLCAYAPRDGASVASMRRAQARQPLRPAIRLAPDRLSYSFDPDLAGEALFHDCPPEVRAAALARMGAEPVGPQEERIRLSARYHALPKHYIRCLEDRAIPPETQEAMTADWPAGSVSTLPAGHSPFLSCPEALAKRLISVAAN	not soluble
MGSDKIHHHHHHLKIITVSGPPSSGKTSVIIKTIEYLKKDQLEIGVVKFDSLSTYDDQMYKKLGVKVKVGLSGNLCPDHYYMTNIEDCVKWGVSEKLDMLISESAGLCNRCSPHIRDVLAICVIDNLSGINTPKKIGPMLRLADIVVITKGDIVSQAEREVFAFRAKQSSPRASIVFINGITGQGAYDLSLRLKEANDYESVIDKKLRFSMPAAVCSYCTGEIRIGERYQTGNIKKIKL	not soluble
MKATTVKENEVKDDRKLSLNEMLRKRCLQVKNTKMKNSSMPKFQYFVRLNGKTRTLNVNASDTVEQGKMQLCHNARSTRMSYGGKPLSDQITFGEYNISNNSTMDLHFRI	not soluble
MSPFDYLHFALLLVAPLAVLIGCGGKKKPPPPKSASKMGPPPPAPAPPTAPEATPAAPAPDAAAAAPAEGEKKDGDKKSEKKDGDKKEEEKKDEEKKDGDKKEDDKKDEKKDEDKKDEKKDADEKKDEEKKDDKKDEKKDEKKDEKKEKSKKSKKSSKSKKSKKSKREKKDEDKKEDDKKEDDKKDDKKEDDKKDDEKKDDDKKDDEKKE	not soluble
